Experimental findings from patent US6271012 are described below.

In assay [1] the target is succinyl-L-alanyl-L-alanyl-L-prolyl-L-phenylalanyl-p-nitroanilide (not provided).
For assay [2], the target named is casein (Hammerstein, Merck).
Assay [3] has as its target casein (Hammerstein, Merck). This is another data set of the same source.

With PB92 protease mutant S160K (enzyme), in assay [1], the kcat/Km (Km in mM and kcat in 1/s) came out at 11000 M⁻¹ s⁻¹. The Specific activity relative to PB92 protease (%), ADU method in assay [2] was 47%.
Regarding PB92 protease mutant M216Q (enzyme), the kcat/Km (Km in mM and kcat in 1/s) in assay [1] amounted to 3000 M⁻¹ s⁻¹. The Specific activity relative to PB92 protease (%), ADU method in assay [2] amounted to 37%.
In the same order, the values of PB92 protease M216-oxidized (enzyme) are 9000 M⁻¹ s⁻¹ and 50%.
Regarding “PB92 protease (serine protease of Bacillus nov. spec. PB92) (enzyme)”, the turnover number (kcat) measured on casein in assay [3] came to 90 s⁻¹. In addition, the kcat/Km (Km in mM and kcat in 1/s) in assay [1] was found to be 102000 M⁻¹ s⁻¹.
On to PB92 protease mutant S160D (enzyme), for which the kcat/Km (Km in mM and kcat in 1/s) in assay [1] amounted to 12000 M⁻¹ s⁻¹. Besides, in assay [2], the Specific activity relative to PB92 protease (%), ADU method came out at 73%.
Consider “PB92 protease mutant [G116V, S126F, P127L, S128T] (enzyme)”, for which, in assay [1], the kcat/Km (Km in mM and kcat in 1/s) is 19000 M⁻¹ s⁻¹.
Regarding “PB92 protease mutant [G116V, S126V, P127M] (enzyme)”, the kcat/Km (Km in mM and kcat in 1/s) in assay [1] stood at 98000 M⁻¹ s⁻¹. In assay [2], the Specific activity relative to PB92 protease (%), ADU method stood at 69%.
In the case of “PB92 protease mutant [G116V, S126H, P127Y] (enzyme)”, in assay [2], the Specific activity relative to PB92 protease (%), ADU method was found to be 73%.
PB92 protease mutant S160C (enzyme): the kcat/Km (Km in mM and kcat in 1/s) in assay [1] came out at 21000 M⁻¹ s⁻¹. Also, the Specific activity relative to PB92 protease (%), ADU method in assay [2] is 48%.
As for PB92 protease mutant N212D (enzyme), the kcat/Km (Km in mM and kcat in 1/s) in assay [1] worked out at 86000 M⁻¹ s⁻¹. Moreover, the Specific activity relative to PB92 protease (%), ADU method in assay [2] came to 100%.
With “PB92 protease mutant [G116V, S126R, P127S, S128P] (enzyme)”, the Specific activity relative to PB92 protease (%), ADU method in assay [2] turned out to be 81%.
As to PB92 protease mutant E134K (enzyme), the kcat/Km (Km in mM and kcat in 1/s) in assay [1] amounted to 49000 M⁻¹ s⁻¹. The Specific activity relative to PB92 protease (%), ADU method in assay [2] was 95%.
In the case of “PB92 protease mutant [S160D, M216S] (enzyme)”, the Specific activity relative to PB92 protease (%), ADU method in assay [2] was 17%.
On the same count and under the same terms, with “PB92 protease mutant [S160D, M216Q] (enzyme)” the figure was 12%.
For the substance PB92 protease mutant M216C (enzyme), in assay [1], the kcat/Km (Km in mM and kcat in 1/s) was 30000 M⁻¹ s⁻¹. Further, in assay [2], the Specific activity relative to PB92 protease (%), ADU method was 36%.
For “PB92 protease mutant [G116V, S126G, P127Q, S128I] (enzyme)”, the kcat/Km (Km in mM and kcat in 1/s) in assay [1] was 13000 M⁻¹ s⁻¹. Further, in assay [2], the Specific activity relative to PB92 protease (%), ADU method worked out at 95%.
Regarding “PB92 protease mutant G116V, S126N, P127H, S128I (enzyme)”, the Specific activity relative to PB92 protease (%), ADU method in assay [2] came to 115%.
Turning to “PB92 protease mutant [G116V, S126L, P127Q, S128A] (enzyme)”, the kcat/Km (Km in mM and kcat in 1/s) in assay [1] was determined as 57000 M⁻¹ s⁻¹. The Specific activity relative to PB92 protease (%), ADU method in assay [2] was found to be 62%.
With “PB92 protease mutant M117L, M216S (enzyme)”, in assay [1], the kcat/Km (Km in mM and kcat in 1/s) turned out to be 8000 M⁻¹ s⁻¹. Further, the Specific activity relative to PB92 protease (%), ADU method in assay [2] turned out to be 36%.
In the same order, the values of “PB92 protease mutant [S160G, N212D] (enzyme)” are 18000 M⁻¹ s⁻¹ and 76%.
On to PB92 protease mutant N212S (enzyme), for which the Specific activity relative to PB92 protease (%), ADU method in assay [2] came to 85%.
“PB92 protease mutant M117L, M216Q (enzyme)”: in assay [1], the kcat/Km (Km in mM and kcat in 1/s) was 2000 M⁻¹ s⁻¹. Also, the Specific activity relative to PB92 protease (%), ADU method in assay [2] is 27%.
In the same order, the values of “PB92 protease mutant [S126M, P127A, S128G] (enzyme)” are 180000 M⁻¹ s⁻¹ and 115%.
Take “PB92 protease mutant M169I, M216S (enzyme)”: the Specific activity relative to PB92 protease (%), ADU method in assay [2] is 44%.
As to “PB92 protease mutant [G116V, S126L, P127N, S128V] (enzyme)”, the kcat/Km (Km in mM and kcat in 1/s) in assay [1] was 65000 M⁻¹ s⁻¹. The Specific activity relative to PB92 protease (%), ADU method in assay [2] was 81%.
Turning to “PB92 protease mutant G116V, S126Y, P127G, S128L (enzyme)”, the Specific activity relative to PB92 protease (%), ADU method in assay [2] is 69%.
PB92 protease mutant M216S (enzyme): the kcat/Km (Km in mM and kcat in 1/s) in assay [1] worked out at 5000 M⁻¹ s⁻¹. Besides, the Specific activity relative to PB92 protease (%), ADU method in assay [2] came out at 40%.
Regarding “PB92 protease mutant [A166D, M169I] (enzyme)”, the Specific activity relative to PB92 protease (%), ADU method in assay [2] turned out to be 100%.
With “PB92 protease mutant [G116V, S126V, P127E, S128K] (enzyme)”, the kcat/Km (Km in mM and kcat in 1/s) in assay [1] was 86000 M⁻¹ s⁻¹. Also, the Specific activity relative to PB92 protease (%), ADU method in assay [2] came to 43%.
